Key:
[1] = molecular target: T1, Bcl-2 ΔC22 (Homo sapiens, UniProt P10415); assay: Bcl-2 ΔC22
T1 construct: Human Bcl-2 (Acc. no. NP_000624; residues 1-217); made in house
Procedure: (§1) Table printed on a drawing sheet, FIGURE 2A
Head of the field: Bcl-2 ΔC22
The patent's description of the figure: FIG. 2 is a graphical representation showing pro-apoptotic BH3-only and pro-survival Bcl-2-like proteins have distinctive interactions. (A) Using competitive binding assays, the IC50 (nM) for the indicated interactions were determined. The results shown are from representative experiments; the variation observed in multiple experiments was less than two-fold (using different chips or protein batches). (B) Relative binding affinities of interactions (tabulated in A) were inversely plotted. The BH3 binding profiles of pro-survival proteins are shown. […] Color reproductions are available from the patentees on request.
(§2) First copying reader's note: The table itself prints no unit; IC50 (nM) is printed only on the axis of panel B of the same figure, which plots the same values.
Where the first naming reader finds the target: head: Bcl-2 ΔC22

[2] = molecular target: T2, Bcl-xL ΔC24 (Homo sapiens, UniProt Q07817); assay: Bcl-xL ΔC24
T2 construct: Human Bcl-xL (Acc. no. NP_612815; residues 1-209); GST (N, cleaved yes); made in house
T2 sequence (Q07817 1-209, stated change not applied): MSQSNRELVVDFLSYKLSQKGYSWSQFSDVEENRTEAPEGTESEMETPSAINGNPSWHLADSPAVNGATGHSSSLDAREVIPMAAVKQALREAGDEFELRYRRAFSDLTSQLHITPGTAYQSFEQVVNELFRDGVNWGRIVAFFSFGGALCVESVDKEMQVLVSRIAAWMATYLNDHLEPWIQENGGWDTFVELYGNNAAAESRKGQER
Procedure: as §1
Head of the field: Bcl-xL ΔC24
(§3) The patent's description of the figure: FIG. 2 is a graphical representation showing pro-apoptotic BH3-only and pro-survival Bcl-2-like proteins have distinctive interactions. (A) Using competitive binding assays, the IC50 (nM) for the indicated interactions were determined. The results shown are from representative experiments; the variation observed in multiple experiments was less than two-fold (using different chips or protein batches). (B) Relative binding affinities of interactions (tabulated in A) were inversely plotted. The BH3 binding profiles of pro-survival proteins are shown. In (C), the sequences of human Bcl-2 (residues 93-202), human Bcl-xL (86-195), human Bcl-w (42-151), mouse Mcl-1 (190-300) and mouse A1 (33-148) that form their BH3 binding grooves (α-helices 2 to 8; Hinds et al., EMBO J 22:1497-1507, 2003) were compared and presented as a phylogenetic tree. Color reproductions are available from the patentees on request.
as §2
Where the first naming reader finds the target: head: Bcl-xL ΔC24

[3] = molecular target: T3, Bcl-w ΔC29 (Homo sapiens, UniProt Q92843, A128E/C29S); assay: Bcl-w ΔC29
T3 construct: human Bcl-w (Acc. no. NP_004041; residues 1-164; C29S A128E); made in house
T3 sequence (Q92843 1-164 C29S/A128E): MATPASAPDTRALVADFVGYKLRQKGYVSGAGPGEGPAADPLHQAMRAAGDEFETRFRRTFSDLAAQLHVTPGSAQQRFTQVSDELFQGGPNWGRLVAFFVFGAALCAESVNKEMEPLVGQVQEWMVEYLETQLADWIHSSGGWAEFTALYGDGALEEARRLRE
Procedure: as §1, §3, §2

[4] = molecular target: T4, A1 ΔC20 (Mus musculus, UniProt Q07440); assay: A1 ΔC20
T4 construct: mouse A1 (Acc. no. NP_033872; residues 1-152); GST (N, cleaved yes); made in house
T4 sequence (Q07440 1-152, stated change not applied): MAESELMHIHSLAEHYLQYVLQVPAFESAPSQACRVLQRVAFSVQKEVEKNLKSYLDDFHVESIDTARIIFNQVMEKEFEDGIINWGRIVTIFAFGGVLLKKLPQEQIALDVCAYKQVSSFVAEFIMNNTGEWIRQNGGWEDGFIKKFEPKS
Procedure: as §1
Head of the field: A1 ΔC20
as §3, §2
Where the first naming reader finds the target: head: A1 ΔC20

[5] = molecular target: T5, FLAG-tagged Bcl-xL (Homo sapiens, UniProt Q07817); assay: Co-immunoprecipitation in transfected 293T cells; format: binding; details: tagged full-length proteins
T5 construct: expressed in transfected cells; host or cells: HEK293T
T5 sequence (Q07817 whole entry): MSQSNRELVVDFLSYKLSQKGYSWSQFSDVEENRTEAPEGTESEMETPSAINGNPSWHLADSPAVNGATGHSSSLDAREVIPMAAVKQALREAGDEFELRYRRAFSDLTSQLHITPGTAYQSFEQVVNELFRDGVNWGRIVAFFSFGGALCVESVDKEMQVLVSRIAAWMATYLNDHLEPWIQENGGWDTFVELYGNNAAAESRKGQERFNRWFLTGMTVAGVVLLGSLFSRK
Excerpt: (§4) Equivalent ^35S-labeled lysates harvested from 293T cells were immunoprecipitated with antibodies to the HA, FLAG (FL) or control (C) tags.
(§5) The maintenance, transfection and metabolic labeling of the human embryonic kidney (HEK) 293T cells with ^35S-methionine/cysteine (NEN) as well as co-immunoprecipitation have been described (Huang et al., Supra; Moriishi et al., Proc Natl Acad Sci USA 96:9683-9688, 1999; O'Conner et al., Supra). Briefly, equivalent TCA-precipitable lysates were immunoprecipiated using the mouse monoclonal antibodies to HA (HA.11; CRP), FLAG (M2; Sigma) and control Glu-Glu (CRP) tags. The proteins were resolved by SDS:PAGE, transferred onto nitrocellulose membranes and detected by fluorography (Amplify; Amersham Biosciences).
(§6) To verify the in vitro findings, interactions of selected pairs of the full-length N-terminally tagged proteins were investigated in mammalian cells by co-immunoprecipitation. […] The cells were metabolically labeled with ^35S-methionine/cysteine to permit semi-quantitative assessment of any interaction between co-associating radiolabeled proteins.
(§7) To verify the in vitro findings, selected pairs of the full-length N-terminally tagged proteins associated in mammalian cells were investigated by co-immunoprecipitation. […] The cells were metabolically labeled with ^35S-methionine/cysteine to permit semi-quantitative assessment of any interaction between the labeled proteins or interaction was gauged by the more sensitive western blotting.

[6] = molecular target: T6, FLAG-tagged Mcl-1 (Mus musculus, UniProt P97287); assay: Co-immunoprecipitation in transfected 293T cells; format: binding; details: tagged full-length proteins
T6 construct: expressed in transfected cells; host or cells: HEK293T
T6 sequence (P97287 whole entry): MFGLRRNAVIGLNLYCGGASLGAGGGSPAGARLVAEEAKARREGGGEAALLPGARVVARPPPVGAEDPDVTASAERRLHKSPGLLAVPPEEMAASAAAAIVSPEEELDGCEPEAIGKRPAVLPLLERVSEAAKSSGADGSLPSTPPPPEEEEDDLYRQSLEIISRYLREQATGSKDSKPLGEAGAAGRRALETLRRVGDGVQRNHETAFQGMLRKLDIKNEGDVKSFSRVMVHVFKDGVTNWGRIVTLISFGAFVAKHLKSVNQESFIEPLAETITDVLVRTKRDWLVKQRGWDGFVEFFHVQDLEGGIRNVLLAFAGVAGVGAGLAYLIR
Excerpt: as §4, §5, §6, §7

[7] = tested on: mouse embryonic fibroblasts (MEFs); assay: Killing of MEFs after retroviral expression, viability 24 hours after infection; format: cell-based; details: retroviral expression, 24 hours after infection
Procedure: FIG. 7 is a graphical representation showing that BH3-only proteins that bind selective targets have weak killing activity. (A) The affinities of BH3-only peptides for pro-survival proteins (tabulated in FIG. 3A) were inversely plotted to facilitate comparison of the patterns of BH3 binding. […] Immortalized 3T9 MEFs were infected with retroviruses expressing only GFP (control), or one of the BH3-only proteins and GFP. The viability of the infected (GFP^+ve) cells was determined by PI exclusion 24 hours after infection. The histograms represent means±1SD of at least 3 experiments. […] The filter was probed with a rat monoclonal anti-FLAG antibody. *Degradation product of Mcl-1. […] Viability of MEFs infected with retroviruses encoding the indicated proteins (GFP^+ve) was analyzed 24 hours after infection. The histograms represent means±1SD of at least 3 experiments. (E) Long-term survival of MEFs infected with BH3 expressing retroviruses. One hundred retrovirally-infected cells were plated and the absolute number of GFP^+ve colonies formed after 6 days scored. […] The data represent the average number of GFP^+ve colonies formed±1SD from at least 3 experiments. To assess the biological relevance of the selective binding, retroviral delivery was used to compare the ability of different BH3-only proteins to kill wild-type mouse embryonic fibroblasts (MEFs). To monitor expression of the introduced gene, a vector (pMIG) in which its expression is coupled via an internal ribosomal entry site (IRES) to that of green fluorescent protein (GFP) was used (Van Parijs et al., Immunity 11:281-288, 1999). The cells were efficiently infected (>90%) and the introduced BH3-only proteins were comparably expressed. Viability of the infected (GFP^+ve) cells was scored 24 hours after infection (FIGS. 7A, 7B) and in long-term colony assays (FIG. 7E). […] Thus, the neutralization of Mcl-1 by Noxa should be complemented by co-expression of a BadBH3 to neutralize Bcl-2 and Bcl-xL in MEFs (FIG. 8A).

[8] = molecular target: T7, Mcl-1 ΔN151 ΔC23 (Mus musculus, UniProt P97287); assay: Mcl-1 ΔN151 ΔC23
T7 construct: mouse Mcl-1 (Acc. no. NP_031588; residues 152-308); GST (N, cleaved yes); made in house
T7 sequence (P97287 152-308, stated change not applied): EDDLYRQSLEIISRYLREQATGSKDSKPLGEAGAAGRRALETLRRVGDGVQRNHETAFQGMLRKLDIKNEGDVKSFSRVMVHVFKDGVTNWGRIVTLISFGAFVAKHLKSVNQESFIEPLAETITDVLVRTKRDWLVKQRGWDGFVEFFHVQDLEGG
Procedure: as §1
Head of the field: Mcl-1 ΔN151 ΔC23
as §3, §2
Where the first naming reader finds the target: head: Mcl-1 ΔN151 ΔC23

[9] = tested on: mouse embryonic fibroblasts (MEFs); assay: Long-term colony assay of retrovirally infected MEFs; format: cell-based; details: colonies after 6 days
Procedure: FIG. 7 is a graphical representation showing that BH3-only proteins that bind selective targets have weak killing activity. (A) The affinities of BH3-only peptides for pro-survival proteins (tabulated in FIG. 3A) were inversely plotted to facilitate comparison of the patterns of BH3 binding. […] Immortalized 3T9 MEFs were infected with retroviruses expressing only GFP (control), or one of the BH3-only proteins and GFP. The viability of the infected (GFP^+ve) cells was determined by PI exclusion 24 hours after infection. The histograms represent means±1SD of at least 3 experiments. […] The filter was probed with a rat monoclonal anti-FLAG antibody. *Degradation product of Mcl-1. […] Viability of MEFs infected with retroviruses encoding the indicated proteins (GFP^+ve) was analyzed 24 hours after infection. The histograms represent means±1SD of at least 3 experiments. (E) Long-term survival of MEFs infected with BH3 expressing retroviruses. One hundred retrovirally-infected cells were plated and the absolute number of GFP^+ve colonies formed after 6 days scored. […] The data represent the average number of GFP^+ve colonies formed±1SD from at least 3 experiments. […] Viability of the infected (GFP^+ve) cells was scored 24 hours after infection (FIGS. 7A, 7B) and in long-term colony assays (FIG. 7E).

T1 sequence (P10415 1-217, stated change not applied): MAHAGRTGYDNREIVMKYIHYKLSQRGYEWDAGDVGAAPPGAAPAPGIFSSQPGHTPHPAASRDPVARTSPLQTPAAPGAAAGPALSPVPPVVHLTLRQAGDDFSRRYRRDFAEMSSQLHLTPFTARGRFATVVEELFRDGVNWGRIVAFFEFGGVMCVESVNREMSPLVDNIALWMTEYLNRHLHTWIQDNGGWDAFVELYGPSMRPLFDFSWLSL

Hrk: BH3-only protein Hrk expressed from retrovirus in MEFs
IC50 [1]: 320 nM | IC50 [2]: 3.7 nM | IC50 [3]: 49 nM | IC50 [4]: 46 nM

Noxa m3: Noxa BH3 with K35E and F32I expressed in cells (Bims NoxaBH3 m3 in FIG. 9D) (PAELEVECATQLRRIGDELNFRQKLL)
interaction with Bcl-xL by co-immunoprecipitation [5]: bound | interaction with Mcl-1 by co-immunoprecipitation [6]: binds | killing of MEFs [7]: more potent killer than wild-type Noxa

Puma: full-length human BH3-only protein Puma expressed in cells [listing 1 of 2 here]
IC50 [8]: 5 nM | IC50 [4]: 5.7 nM

Puma: full-length human BH3-only protein Puma expressed in cells [listing 2 of 2 here]
interaction with Mcl-1 by co-immunoprecipitation [6]: well | killing of MEFs [7]: soon died | long-term survival, GFP+ve colonies [9]: failed to generate colonies

Source: patent publication US20080027145A1, “Therapeutic Molecules and Methods for Generating and/or Selecting Same” (priority 2004, published 2008)
